{
  "source": "paper doi:10.1101/2021.03.28.437436",
  "key": {"[1]": {"target": "Recombinant catalytically inactive S195A thrombin mutant (UniProt P00734)", "test": "other fluorescence titration"}, "[2]": {"target": "N-terminal 6xHis-tag derivative of human α-synuclein (6xHis-αSyn) (human) (UniProt P37840)", "test": "SPR"}, "[3]": {"target": "Nα-fluoresceinated hirugen, [F]-hirugen", "test": "other fluorescence titration"}, "[4]": {"target": "Human plasma α-thrombin (αT) (human)", "test": "other fluorescence titration"}},
  "note": "Square brackets hold non-standard residues; d marks the D form. Ends that are not written are not given here. pY = N[C@@H](Cc1ccc(OP(=O)(O)O)cc1)C(=O)O",
  "data": [
    {"molecule": "Hirugen (C-terminal peptide 54-65 of hirudin HV1)", "values": [
      {"measurement": "increase of [F]-hirugen fluorescence on displacement", "setting": "[1]", "result": 65, "unit": "%"}
    ]},
    {"molecule": "Recombinant catalytically inactive S195A thrombin mutant (from UniProt P00734) (enzyme)", "values": [
      {"measurement": "Kd", "setting": "[2]", "result": 44, "unit": "nM"},
      {"measurement": "Kd", "setting": "[3]", "result": 30, "unit": "nM"}
    ]},
    {"molecule": "βT-thrombin (βTT) (enzyme)", "values": [
      {"measurement": "fold decrease in affinity against S195A", "setting": "[2]", "result": 1.5, "unit": "fold"}
    ]},
    {"molecule": "VRPEHPAETE[pY]DSL[pY]PEDDL", "note": "[Fibrinogen γ’-peptide (C-terminal peptide 408-427 of fibrinogen elongated γ-chain splice variant)]", "values": [
      {"measurement": "fold decrease in affinity with 20 μM αSyn against no αSyn", "setting": "[4]", "result": 3, "unit": "fold"}
    ]}
  ]
}
